Experimental data published in article PMC12051234, “NrdR in Streptococcus and Listeria spp.: DNA Helix Phase Dependence of the Bacterial Ribonucleotide Reductase Repressor” (Molecular Microbiology, 2025).

Target: T1, EcoNrdR (Escherichia coli) (UniProt P0A8D0)
T1 sequence: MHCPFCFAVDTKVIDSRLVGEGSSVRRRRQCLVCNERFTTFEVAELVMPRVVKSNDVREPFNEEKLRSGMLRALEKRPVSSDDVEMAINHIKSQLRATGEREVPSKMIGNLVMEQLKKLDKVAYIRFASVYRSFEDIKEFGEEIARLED
Assay: MST
Settings: temperature not stated. Lmo: 25 mM Bis-Tris propane pH 6.5, 100 mM KCl, 5 mM MgCl2, 5% glycerol, 1 mM DTT, 0.05% Tween 20, one nucleotide 1 mM or two at 0.

Sequence: ACTATTTGCTATATATTGTGTGGTTGAATCTTTTTTCAACTACATCTAGTATCTCTG (double strand) [Eco nrdHIEF wild type]
- Kd: 130 nM
